In patent publication US20120263651, “Single Stranded DNA Aptamers Binding NF-kB/RelA” (Board of Regents, The University of Texas System, published 2012):

What was measured:
[1] = molecular target: GST-RelA(1-313) (NF-kB p65, DNA binding and IkBa interactive domain) (UniProt Q04206 Q04206:1-313); test: filter; variable region alone sufficient for binding; data not shown; competition and direct binding; details: tags: GST; chain copies: 2
Experimental: Binding Studies: (i) Nitrocellulose filter binding assay: Filter binding assays were performed as described (22). Initially, 70 mer oligonucleotides were commercially synthesized (IDT) to include the proximal 20 bases of each flanking primer sequence and the 30 base variable region. DNAs were 5′ end-labeled with ³²P-ATP using T4-PNK (New England Biolabs) and purified by glass bead binding using a MERMAID kit (MP Biomedicals LLC). Protein and labeled aptamer were incubated in ABB and filtered through 25 mm nitrocellulose filters. The bound material was counted in a Beckman Liquid Scintillation counter. For competition studies, binding reactions (100 μL) in ABB were incubated at RT for 20 min with 100 fold excess (10 picomoles) of unlabeled competitor DNAs, followed by the addition of 0.1 picomole of ³²P-labeled KB55 probe. After 30 min of incubation, reactions were filtered and counted. The KB55 sequence is […] (SEQ ID NO: 3) and self anneals to form a duplex. Upper and lower strands of IL8KB are […] (SEQ ID NO: 4) and […] (SEQ ID NO: 5), respectively.
Isolation of RelA(1-313) binding single stranded aptamer: Purified recombinant GST-RelA(1-313), encoding the DNA binding and IκBα interactive domain, was used to screen for high affinity ssDNA aptamers by repeated rounds of in vitro binding and enrichment. […]

[2] = molecular target: endogenous RelA in A549 cells (Homo sapiens, UniProt Q04206 Q04206:1-551); test: cell_activity; 4 uM transfected aptamer; control induction 5-fold (Gro-beta) and nearly 7-fold (TNFAIP3)
Chain of endogenous RelA in A549 cells (Q04206 whole entry, one chain of several): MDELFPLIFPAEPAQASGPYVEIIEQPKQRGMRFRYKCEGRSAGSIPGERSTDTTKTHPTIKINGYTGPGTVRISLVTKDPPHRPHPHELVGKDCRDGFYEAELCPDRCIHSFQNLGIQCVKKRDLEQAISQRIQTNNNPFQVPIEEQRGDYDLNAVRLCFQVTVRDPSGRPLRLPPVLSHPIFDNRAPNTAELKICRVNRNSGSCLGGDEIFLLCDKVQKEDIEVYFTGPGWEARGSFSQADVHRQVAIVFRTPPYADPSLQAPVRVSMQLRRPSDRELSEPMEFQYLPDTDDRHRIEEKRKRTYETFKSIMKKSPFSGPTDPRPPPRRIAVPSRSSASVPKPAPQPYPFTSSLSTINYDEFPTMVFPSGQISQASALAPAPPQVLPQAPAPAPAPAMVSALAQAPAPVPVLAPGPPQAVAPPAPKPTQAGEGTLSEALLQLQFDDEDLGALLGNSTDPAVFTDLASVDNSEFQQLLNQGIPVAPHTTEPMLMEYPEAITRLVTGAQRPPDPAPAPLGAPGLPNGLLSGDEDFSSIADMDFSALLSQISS
Experimental: A549 cells transfected with nothing (−), 4 μM P028A1 or P028F4 aptamers were stimulated in the absence (Con) or presence of TNF. (1 h, 30 ng/ml). Total RNA was extracted and subjected to Q-RT-PCR for Gro-β (top panel) and TNFAIP3/A20 (bottom panel). Data are normalized to GAPDH and expressed as fold change relative to uninfected control. Each bar is mean±SD of triplicate determination. * p<0.05 and (4B) ChIP assay. A549 cells transfected with nothing (−), P028A1 (4 μM) or P028F4 (4 μM) were stimulated in the absence (Con) or presence of TNF (1 h, 30 ng/ml). Two-step ChIP was preformed using pre-immune IgG (IgG), or anti-RelA as the primary Abs. Immunoprecipitated DNA was subjected to quantitative PCR using primers for Groβ (top) or TNFAIP3/A20 promoters (bottom) as indicated. Data are shown as fold increase in signal relative to unstimulated A549 cells (X, ±SD of technical replicates). The study was repeated twice with similar results;
Aptamer P028F4 inhibits TNFα-induced endogenous NF-κB dependent gene expression: Earlier studies selectively inhibiting NF-κB/RelA translocation identified Groβ and TNFAIP3/A20 as part of a TNFα inducible gene network downstream of NF-κB (3,4,39). […] Relative changes in Groβ and TNFAIP3/A20 transcripts were determined by Q-RT-PCR. […]

Chain of GST-RelA(1-313) (NF-kB p65, DNA binding and IkBa interactive domain) (Q04206 1-313, one chain of several): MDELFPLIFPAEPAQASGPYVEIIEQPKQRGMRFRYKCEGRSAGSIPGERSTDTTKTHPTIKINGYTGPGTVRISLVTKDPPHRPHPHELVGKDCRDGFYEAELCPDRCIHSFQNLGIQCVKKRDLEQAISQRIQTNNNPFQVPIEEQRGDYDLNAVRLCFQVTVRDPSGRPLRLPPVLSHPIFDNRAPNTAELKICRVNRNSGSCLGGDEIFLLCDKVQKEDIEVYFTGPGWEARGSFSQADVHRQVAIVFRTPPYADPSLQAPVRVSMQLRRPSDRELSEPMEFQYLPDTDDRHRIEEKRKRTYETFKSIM

B1: P028F4 30-base variable region (ssDNA)
DNA: GCGGGACAGGAGAAACACGGCATGTCAGCG
Q: Does B1 bind [1]?
A: Result: binds

B2: P028F4 (ssDNA)
DNA: GGGTAACCTTGAGTCACGAATTCAAGCGGGACAGGAGAAACACGGCATGTCAGCGAAGGTACCCAACTTACAGCTTCTGG
Q: How did the activity [2] turn out when B2 was run?
A: The activity was < 2 fold induction of Gro-beta and TNFAIP3 mRNA.
